Earlier results on two substances are cited in PMC4712107.

Where two headings read alike, the source gives them in different places. Bounds are passed on as bounds.

The target in series [1] is CRF-BP (Homo sapiens) (UniProt P24387).
For series [2] the target is unchanged. The source holds these as a separate data set.

UniProt P24387, sequence (P24387 25-322): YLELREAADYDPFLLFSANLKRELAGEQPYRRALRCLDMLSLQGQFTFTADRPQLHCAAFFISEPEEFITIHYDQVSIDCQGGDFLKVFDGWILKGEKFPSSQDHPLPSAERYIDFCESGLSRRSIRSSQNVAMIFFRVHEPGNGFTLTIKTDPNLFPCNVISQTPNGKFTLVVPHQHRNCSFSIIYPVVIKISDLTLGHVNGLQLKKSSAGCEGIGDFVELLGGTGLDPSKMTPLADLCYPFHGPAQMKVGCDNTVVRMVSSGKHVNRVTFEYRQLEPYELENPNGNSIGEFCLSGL

A word on the Kd: it is a measure of binding affinity in units of concentration. As to CRF (from UniProt P06850), in the series with CRF-BP (Homo sapiens) [1], the Kd was < 1 nM.
In the case of Urocortin 1 (from UniProt P55089), in the series with CRF-BP (Homo sapiens) [2], the Kd is < 1 nM.
